Results taken from patent publication US20240254193A1.
Changes are numbered by the printed parent chain.

B1: super-TRAIL AX-1620, P50591 114-281 (ligand)
chain: VRERGPQRVAAHITGTRGRSNTLSSPNSKNEKALGRKINSWESSRSGHSFLSNLHLRNGELVIHEKGFYYIYSQTYFRFQEEIKENTKNDKQMVQYIYKYTSYPDPILLMKSARNSCWSKDAEYGLYSIYQGGIFELKENDRIFVSVTNEHLIDMDHEASFFGAFLVGGGGSGGGGSGGGSGGVAAHITGTRGRSNTLSSPNSKNEKALGRKINSWESSRSGHSFLSNLHLRNGELVIHEKGFYYIYSQTYFRFQEEIKENTKNDKQMVQYIYKYTSYPDPILLMKSARNSCWSKDAEYGLYSIYQGGIFELKENDRIFVSVTNEHLIDMDHEASFFGAFLVG
B2: super-TRAIL AX-1618, P50591 114-281 (ligand)
chain: VRERGPQRVAAHITGTRGRSNTLSSPNSKNEKALGRKINSWESSRSGHSFLSNLHLRNGELVIHEKGFYYIYSQTYFRFQEEIKENTKNDKQMVQYIYKYTSYPDPILLMKSARNSCWSKDAEYGLYSIYQGGIFELKENDRIFVSVTNEHLIDMDHEASFFGAFLVGGGGSGGGGSGGVAAHITGTRGRSNTLSSPNSKNEKALGRKINSWESSRSGHSFLSNLHLRNGELVIHEKGFYYIYSQTYFRFQEEIKENTKNDKQMVQYIYKYTSYPDPILLMKSARNSCWSKDAEYGLYSIYQGGIFELKENDRIFVSVTNEHLIDMDHEASFFGAFLVG
B3: super-TRAIL AX-1622, P50591 114-281 (ligand)
chain: VRERGPQRVAAHITGTRGRSNTLSSPNSKNEKALGRKINSWESSRSGHSFLSNLHLRNGELVIHEKGFYYIYSQTYFRFQEEIKENTKNDKQMVQYIYKYTSYPDPILLMKSARNSCWSKDAEYGLYSIYQGGIFELKENDRIFVSVTNEHLIDMDHEASFFGAFLVGGGGSGGGVAAHITGTRGRSNTLSSPNSKNEKALGRKINSWESSRSGHSFLSNLHLRNGELVIHEKGFYYIYSQTYFRFQEEIKENTKNDKQMVQYIYKYTSYPDPILLMKSARNSCWSKDAEYGLYSIYQGGIFELKENDRIFVSVTNEHLIDMDHEASFFGAFLVG
B4: super-TRAIL AX-1632, P50591 114-281 (ligand)
chain: VRERGPQRVAAHITGTRGRSNTLSSPNSKNEKALGRKINSWESSRSGHSFLSNLHLRNGELVIHEKGFYYIYSQTYFRFQEEIKENTKNDKQMVQYIYKYTSYPDPILLMKSARNSCWSKDAEYGLYSIYQGGIFELKENDRIFVSVTNEHLIDMDHEASFFGAFLVGGGGGGGGGGVAAHITGTRGRSNTLSSPNSKNEKALGRKINSWESSRSGHSFLSNLHLRNGELVIHEKGFYYIYSQTYFRFQEEIKENTKNDKQMVQYIYKYTSYPDPILLMKSARNSCWSKDAEYGLYSIYQGGIFELKENDRIFVSVTNEHLIDMDHEASFFGAFLVG
B5: super-TRAIL AX-1623, P50591 114-281 (ligand)
chain: VRERGPQRVAAHITGTRGRSNTLSSPNSKNEKALGRKINSWESSRSGHSFLSNLHLRNGELVIHEKGFYYIYSQTYFRFQEEIKENTKNDKQMVQYIYKYTSYPDPILLMKSARNSCWSKDAEYGLYSIYQGGIFELKENDRIFVSVTNEHLIDMDHEASFFGAFLVGGGGSGGGGVAAHITGTRGRSNTLSSPNSKNEKALGRKINSWESSRSGHSFLSNLHLRNGELVIHEKGFYYIYSQTYFRFQEEIKENTKNDKQMVQYIYKYTSYPDPILLMKSARNSCWSKDAEYGLYSIYQGGIFELKENDRIFVSVTNEHLIDMDHEASFFGAFLVG
B6: super-TRAIL AX-1630, P50591 114-281 (ligand)
chain: B5 chain with S172G
B7: super-TRAIL AX-1606, P50591 120-281 (ligand)
chain: QRVAAHITGTRGRSNTLSSPNSKNEKALGRKINSWESSRSGHSFLSNLHLRNGELVIHEKGFYYIYSQTYFRFQEEIKENTKNDKQMVQYIYKYTSYPDPILLMKSARNSCWSKDAEYGLYSIYQGGIFELKENDRIFVSVTNEHLIDMDHEASFFGAFLVGGGGSGGGGSGGQRVAAHITGTRGRSNTLSSPNSKNEKALGRKINSWESSRSGHSFLSNLHLRNGELVIHEKGFYYIYSQTYFRFQEEIKENTKNDKQMVQYIYKYTSYPDPILLMKSARNSCWSKDAEYGLYSIYQGGIFELKENDRIFVSVTNEHLIDMDHEASFFGAFLVG
B8: super-TRAIL AX-1611, P50591 114-281 (ligand)
chain: VRERGPQRVAAHITGTRGRSNTLSSPNSKNEKALGRKINSWESSRSGHSFLSNLHLRNGELVIHEKGFYYIYSQTYFRFQEEIKENTKNDKQMVQYIYKYTSYPDPILLMKSARNSCWSKDAEYGLYSIYQGGIFELKENDRIFVSVTNEHLIDMDHEASFFGAFLVGGGGGGVAAHITGTRGRSNTLSSPNSKNEKALGRKINSWESSRSGHSFLSNLHLRNGELVIHEKGFYYIYSQTYFRFQEEIKENTKNDKQMVQYIYKYTSYPDPILLMKSARNSCWSKDAEYGLYSIYQGGIFELKENDRIFVSVTNEHLIDMDHEASFFGAFLVG
B9: super-TRAIL AX-1621, P50591 114-281 (ligand)
chain: VRERGPQRVAAHITGTRGRSNTLSSPNSKNEKALGRKINSWESSRSGHSFLSNLHLRNGELVIHEKGFYYIYSQTYFRFQEEIKENTKNDKQMVQYIYKYTSYPDPILLMKSARNSCWSKDAEYGLYSIYQGGIFELKENDRIFVSVTNEHLIDMDHEASFFGAFLVGGGGSGGVAAHITGTRGRSNTLSSPNSKNEKALGRKINSWESSRSGHSFLSNLHLRNGELVIHEKGFYYIYSQTYFRFQEEIKENTKNDKQMVQYIYKYTSYPDPILLMKSARNSCWSKDAEYGLYSIYQGGIFELKENDRIFVSVTNEHLIDMDHEASFFGAFLVG
B10: super-TRAIL AX-1631, P50591 114-281 (ligand)
chain: B9 chain with S172G

The binders below were run against TRAIL receptors (assay: cell-based or functional assay).

EC50 measured by use of L929 cells [ng/mL]	fold enhanced activity to induce apoptosis in L929 cells compared with wild type TRAIL [fold]	Binder	EC50, viability of H460 cells by MTS assay [ng/mL]	EC50, viability of RPMI-8226 cells by MTS assay [ng/mL]
2.1	–	B1	–	–
1.5	–	B2	–	–
5.3	–	B3	–	–
1.1	–	B4	–	–
0.88	–	B5	–	–
0.78	–	B6	–	–
1.05	–	B7	–	–
0.85	30	B8	54.7	15.4
0.95	–	B9	–	–
1.2	–	B10	–	–
